Variants at the floor of the assay were thinned out.
B1: TPR 5TU (parent)
chain: GGAUCUUCUCGAUCUAACAAAAAAGACAAAUCUGCCACAAAGCUUGAGAGCAUCUUCGGAUGCAGAGGCGGCAGCCUUCGGUGGCGCGAUAGCGCCAACGUUCUCAACUAUGACACGCAAAACGCGUGCUCCGUUGAAUGGAGUUUAUCAUG

Variants of: B1
Assay: polymerase ribozyme fitness, log enrichment relative to wild type (log ratio); higher = more active; in vitro selection for triplet polymerase activity
Summary of the method: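 A single round of triplicate in vitro selection, including frozen incubation at −7 °C, was applied to PCR-built, transcribed mutant libraries of each subunit of a heterodimeric triplet polymerase ribozyme. Illumina sequencing of input and output libraries retained genotypes with ≥10 input reads and ≥1 read per output. Fitness is the base-2 logarithm of genotype enrichment divided by wild-type enrichment, from inverse-variance-weighted replicate averages.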

Variant | polymerase ribozyme fitness (log ratio)
A49C C75A G86U G143C | -4.19
A49C C99U U102G U109A | -2.46
G48U C132A U139G | -3.31
G50C G126A | -2.28
G48U C85A U144C | -2.1
G48C C75G C87G A91C C103G U134G U135C | ≤ -4.2
A49U C75U G80A C96U A97C U145A U146G U148G | ≤ -4.2
G50C A73C C95G C105G | ≤ -4.2
G50C C75G C85A C132U | ≤ -4.2
G50C G59C | -3.38
G50A U55G G67C G80U C85G C105U A138U | ≤ -4.2
A49C C96U | -3.23
G48C G86A G141C U148G G152A | -4.03
A49U U55A C96A | -1.06
A49U G50A A60C | -2.62
A49C A73G U90C C149U | ≤ -4.2
A47G U82A A89C C93U | -1.39
G50A A73U C93G G100U A107G U109C A142C A150U | ≤ -4.2
A49C G50C C85A C103U A106G G117U A122U C131U U139G | ≤ -4.2
A49U A73G | -2.09
A47G G50U C85G | -3.89
G50C G84U | -3.79
A49C G50U U53G G81C C87U A89C A106U A150C | ≤ -4.2
A49G U104C C149G | ≤ -4.2

Variant | polymerase ribozyme fitness (log ratio)
A49C C87G | ≤ -4.2
G50C G86A U102A G143U | ≤ -4.2
A49C G58A | -4.08
A49C G81U C93G | ≤ -4.2
A49G G59C U77G U139A | ≤ -4.2
A47G G83C C87G G112U A120C C125A G136U | ≤ -4.2
G50A C85U | -1.67
G50A C96U C125G | -2.14
A49C A52G G81A C87U U102C C114G A150G | ≤ -4.2
G50A G58A U78A G94A G141U | ≤ -4.2
A49U G50U C125U | -1.77
G50C C57G C118G | -3.68
G50A A52C C57G C93U | -3.12
G50A A73G A150G | ≤ -4.2
G48A U61A | -2.86
A49C C54G C79U G88A C95G | ≤ -4.2
G50A G71A C95U U139A | ≤ -4.2
A47G C85U A138G | -4.18
G50A A52C U55G G141C | ≤ -4.2
G48U C85U G117U A122U | 0.609
G50C G74A U77G C93G U135A U139A | ≤ -4.2
A49G A60U U78C C95A A142C | ≤ -4.2
G50C A52C G128A | ≤ -4.2
G50C A52C C79A C116G C125G C132G | ≤ -4.2

Variant | polymerase ribozyme fitness (log ratio)
A49G A52G U55C G84A A91C C99G U101G | ≤ -4.2
A49U C93A C103U A119U | ≤ -4.2
G48A C54G C57U G81A C95U A115U C131A U146G G152U | ≤ -4.2
G50A U56A C57A C114G G133A | -3.53
G48A G70A U78G G84U G143U | ≤ -4.2
A47G G88A C96U A120G G143A | ≤ -4.2
A47U U55C G58C | -0.823
G48U C57U G58C G62C G67A U82A G86A | ≤ -4.2
G50C A60C A98U | -3.01
G48A C85U C114U A122C | -2.44
G48C C57A C99U U130C | -2.37
A49U U55A | -1.02
A49G U135C U145C | -2.6
G50C C57U U82G A121G G143C | ≤ -4.2
G48A C54U G84A G92U C99G U109G G133C | ≤ -4.2
A47G C85A C93A A98C A121U | -4.11
G48C C85A | -2.58
G50A C72U C85A | -2.69
G48C C118G A120G | -3.82
G50A G65C C76G G92C G100A C125G | ≤ -4.2
G50A A52U C76G A150G | ≤ -4.2
A49U A52C A89G C95U | -2.69
A47U A60U C95U G136A | -1.58
A49C A52G U78C C93G U146C | ≤ -4.2

Variant | polymerase ribozyme fitness (log ratio)
A49U G94A A119C | -1.28
A49C C54U G84A C103U C116G U130G | ≤ -4.2
A49C C57U A60G C76U C118A | ≤ -4.2
G50C G83A C87U G141U | ≤ -4.2
G50A G65A U102C | -4.1
G50A A52G | -1.15
G48U U78A A91U U102G U144C | ≤ -4.2
A49C C99U | ≤ -4.2
G50A G88A | ≤ -4.2
A49C U61A G86A A89U A138U | ≤ -4.2
A47U G58U G84A C93G U148A | ≤ -4.2
A49C A52G C93U A119U | ≤ -4.2
G48C A52C C85G G92C A119U G126A A138U | ≤ -4.2
A49U A138U | ≤ -4.2
G50C A89G A107C C123G | ≤ -4.2
A49C G50A G59U C69G C93U C99U U111G A150U | ≤ -4.2
A47G G59C G62U G83A C87U U101G A138U | ≤ -4.2
G48A A52C C105U C108U A137C | ≤ -4.2
G50A C76A C87A A97G C118U G141C | ≤ -4.2
A49U G92U | -0.559
G50C A98U | -2.38
G50A C87U C99U U146A | -3.96
A49U U56G C57U C96U U102G A147G | -3.99
G48C G58U C105G C114G U135C | ≤ -4.2

Variant | polymerase ribozyme fitness (log ratio)
A49G C51G U78C C96G G136A | ≤ -4.2
A49U U82G C105U C116U U145A | -2.58
A49C G71C | ≤ -4.2
G50A C99G | -3.05
A47U G68A U82A A97G | ≤ -4.2
G48A G62A G68C C105U G126A G136C G141U U145G | ≤ -4.2
G50A G58U C95U C118G | -1.92
G48A A113C U134C A137C G140A U148G | ≤ -4.2
A47U U61A C118U | -2.01
A49G C57U | -0.525
A49C G50U A64C A73U C87A A115G C118G | ≤ -4.2
G48U G80U C96G | ≤ -4.2
A47U U53A G133C | -2.66
A47U G83C A98U | -0.618
G50A C99A U145A | -3.7
G50A C54G C116U | -2.17
A49U A52G U61G C93U | -3.49
G48U C93A | -2.5
A49U A52G | -1.71
G48A G117U | -0.676
A49C A106U | -3.68
G50C G59C U102G | -2.34
G50A C51U U55G G84A G128A C131G U135C | ≤ -4.2
A49G G50C U77A G92A C103G G117U | ≤ -4.2

Variant | polymerase ribozyme fitness (log ratio)
G50A C54U | -1.32
A47G G81C | 0.162
A49C U82A C85U G88A G92U G133A G141U | ≤ -4.2
G50A U78A G84A G100C A137G | ≤ -4.2
A47G G58C C93A U101G | -3.96
G48A U53A C85U C118U | -2.36
G50C A52G U53A G81C U82G G88U C105G A150G | ≤ -4.2
A47U G94A | -0.308
A49G C87G | -4.02
A47G C69U | -1.14
A47G C69G | -1.95
G48A G81U G92U C118A G152C | ≤ -4.2
G48A C79U | -3.91
G50C C116A U144A C149G | ≤ -4.2
G50C A52G G62A G74U G86C C116U | ≤ -4.2
G48C G84A | -3.2
G50C G65C G68A G86U A147G | ≤ -4.2
G50A G92A U101G G117C | -3.96
A49U A91G U130A A138U | ≤ -4.2
A47U G59A G124U | -0.07
A49C G70U A97U A107G G128U G136A U139A | ≤ -4.2
G48U A49U A98G C116G G133U | ≤ -4.2
G50A G83A C87A A91C G92A U146A | ≤ -4.2
A49C C103A U139A | ≤ -4.2

Variant | polymerase ribozyme fitness (log ratio)
A49U G84A G136U | -3.29
A47U U61G U134A | -3.8
A49G A115U | -2.35
A49C A66U C75G C87G C93A A98G A115U U127G G152C | ≤ -4.2
A49C G80U | -4.02
G48C A49C | -3.92
G48A G50A G58C C87G | ≤ -4.2
A49U G50C C57U A89C C96A | -3.23
A47U C93A | -2.17
A47U A52G U53G U56A U145G | -3.64
A47U U82G G84A A97G U102G G136C | ≤ -4.2
A49C C76A C93U A113G G117A | ≤ -4.2
A49U U61G C93A C108G C114A U134A C149G | ≤ -4.2
A49G G71A G126A | ≤ -4.2
A49U U61C G70A G92U | ≤ -4.2
G50A A106C | -2.72
G50A G94U A121C | -2.21
G48U G74A C85G A115C U134A | ≤ -4.2
A49C G83C C95G U101A | ≤ -4.2
G50A G71C A91U A150U | ≤ -4.2
G50A A142U | -2.45
A49G G50C G71A A91U U151A | ≤ -4.2
A47G G74A | -3.67

From the RNAGym collection of RNA variant scans (doi:10.1073/pnas.2313332121)
